In paper PMC6457126 (Proteins, 2018):
No end group written: not given here.

T1: ATAD2 CO C1057A/C1079A/C1101A bromodomain (triple cysteine mutant) (human, UniProt Q6PL18 981-1108, C1057A | C1079A | C1101A)
T1 sequence: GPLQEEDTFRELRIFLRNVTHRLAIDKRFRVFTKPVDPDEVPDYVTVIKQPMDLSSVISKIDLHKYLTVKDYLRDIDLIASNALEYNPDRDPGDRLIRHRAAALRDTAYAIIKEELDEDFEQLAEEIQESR


What was measured:
[1] = target: histone H4K5ac (Homo sapiens) (UniProt P62805); assay: ITC; conditions: cited from earlier work
[2] = target: T1, ATAD2 CO C1057A/C1079A/C1101A …; assay: ITC

Molecule | Kd [1] | Kd [2] | dH [2] | stoichiometry N [2]
ATAD2 bromodomain (from UniProt Q6PL18) | 22 µM | – | – | –
SGRGK(Ac)GGKGL [histone H4K5ac peptide (residues 1-10)] | – | 113 µM | -4.2 kcal/mol | 0.84
